Data on one molecule can be found in patent US9616106 (NEUMEDICINES, dated 2017).

Assay in all cases: cell-based or functional assay
Test [1] addresses murine IL-12 receptor on mouse CD14- PBMC (mouse) (UniProt P97378).
The target in test [2] is rat IL-12 receptor on rat PBMC (rat).
Test [3] has as its target human IL-12 receptor on human CD14- PBMC (human, UniProt Q99665 24-862).

Bounds are passed on as bounds.

Chain of murine IL-12 receptor on mouse CD14- PBMC (mouse) (P97378 24-874): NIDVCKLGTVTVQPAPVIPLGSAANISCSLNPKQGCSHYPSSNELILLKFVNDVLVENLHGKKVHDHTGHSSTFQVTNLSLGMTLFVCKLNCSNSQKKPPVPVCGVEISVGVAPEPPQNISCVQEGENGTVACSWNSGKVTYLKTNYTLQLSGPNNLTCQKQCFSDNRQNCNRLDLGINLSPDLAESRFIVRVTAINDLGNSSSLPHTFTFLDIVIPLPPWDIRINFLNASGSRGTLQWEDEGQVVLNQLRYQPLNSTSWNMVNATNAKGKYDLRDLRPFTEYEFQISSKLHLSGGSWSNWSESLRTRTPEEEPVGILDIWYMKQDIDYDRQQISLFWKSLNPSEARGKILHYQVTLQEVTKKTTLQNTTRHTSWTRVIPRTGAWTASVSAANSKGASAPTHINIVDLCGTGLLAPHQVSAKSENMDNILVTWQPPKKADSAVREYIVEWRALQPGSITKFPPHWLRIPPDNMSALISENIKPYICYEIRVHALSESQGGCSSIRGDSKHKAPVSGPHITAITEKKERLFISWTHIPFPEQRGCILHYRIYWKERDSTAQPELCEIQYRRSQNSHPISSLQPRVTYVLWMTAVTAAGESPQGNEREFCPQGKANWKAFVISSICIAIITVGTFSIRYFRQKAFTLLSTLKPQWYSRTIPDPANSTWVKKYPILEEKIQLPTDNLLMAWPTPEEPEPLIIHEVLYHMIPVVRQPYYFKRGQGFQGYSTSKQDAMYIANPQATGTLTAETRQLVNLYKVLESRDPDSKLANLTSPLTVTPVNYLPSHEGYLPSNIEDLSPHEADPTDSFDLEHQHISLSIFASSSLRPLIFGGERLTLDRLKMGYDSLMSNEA
Chain of human IL-12 receptor on human CD14- PBMC (Q99665 24-862): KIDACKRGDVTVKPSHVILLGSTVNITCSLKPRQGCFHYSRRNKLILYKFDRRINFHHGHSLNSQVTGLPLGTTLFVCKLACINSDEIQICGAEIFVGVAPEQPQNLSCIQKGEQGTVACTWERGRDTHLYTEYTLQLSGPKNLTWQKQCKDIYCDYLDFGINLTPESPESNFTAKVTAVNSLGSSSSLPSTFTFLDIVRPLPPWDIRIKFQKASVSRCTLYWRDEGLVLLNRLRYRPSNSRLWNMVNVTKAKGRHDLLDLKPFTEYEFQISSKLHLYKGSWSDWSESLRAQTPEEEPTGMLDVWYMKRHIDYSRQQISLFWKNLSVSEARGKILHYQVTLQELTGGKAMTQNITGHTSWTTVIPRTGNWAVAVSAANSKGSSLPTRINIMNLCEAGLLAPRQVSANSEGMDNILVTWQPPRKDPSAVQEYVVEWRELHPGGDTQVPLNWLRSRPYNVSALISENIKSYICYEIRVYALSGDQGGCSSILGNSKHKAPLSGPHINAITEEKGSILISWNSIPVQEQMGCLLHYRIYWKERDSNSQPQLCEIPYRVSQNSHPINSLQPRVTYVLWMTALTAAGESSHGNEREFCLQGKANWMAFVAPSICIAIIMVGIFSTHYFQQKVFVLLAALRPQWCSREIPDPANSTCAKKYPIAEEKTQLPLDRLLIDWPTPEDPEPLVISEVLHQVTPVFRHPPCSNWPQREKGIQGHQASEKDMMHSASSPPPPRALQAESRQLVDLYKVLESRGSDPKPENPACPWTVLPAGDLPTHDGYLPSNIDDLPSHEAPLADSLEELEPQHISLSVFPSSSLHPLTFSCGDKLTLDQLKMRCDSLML

B1: recombinant human IL-12 (ligand)
chain 1: RNLPVATPDPGMFPCLHHSQNLLRAVSNMLQKARQTLEFYPCTSEEIDHEDITKDKTSTVEACLPLELTKNESCLNSRETSFITNGSCLASRKTSFMMALCLSSIYEDLKMYQVEFKTMNAKLLMDPKRQIFLDQNMLAVIDELMQALNFNSETVPQKSSLEEPDFYKTKIKLCILLHAFRIRAVTIDRVMSYLNAS
chain 2: IWELKKDVYVVELDWYPDAPGEMVVLTCDTPEEDGITWTLDQSSEVLGSGKTLTIQVKEFGDAGQYTCHKGGEVLSHSLLLLHKKEDGIWSTDILKDQKEPKNKTFLRCEAKNYSGRFTCWWLTTISTDLTFSVKSSRGSSDPQGVTCGAATLSAERVRGDNKEYEYSVECQEDSACPAAEESLPIEVMVDAVHKLKYENYTSSFFIRDIIKPDPPKNLQLKPLKNSRQVEVSWEYPDTWSTPHSYFSLTFCVQVQGKSKREKKDRVFTDKTSATVICRKNASISVRAQDRYYSSSWSEWASVPCS
modifications: glycosylated (produced in CHO cells)
Consider B1, for which the EC50 for stimulating IFN-γ secretion from PBMC (ELISA) in test [1] and in test [2] was more than 1 nM throughout. Besides, in test [3], the “EC50 for stimulating IFN-γ secretion from CD14- PBMC (ELISA, 16 hours)” value is 0.00251 nM.
